Experiment: soluble on expression in E. coli; label from the status in PepcDB or PDB records

| Sequence | soluble on expression in E. coli |
| --- | --- |
| MIKHLVAPLVFTSLILTGCQSPQGKFTPEQVAAMQSYGFTESAGDWSLGLSDAILFAKNDYKLLPESQQQIQTMAAKLASTGLTHARMDGHTDNYGEDSYNEGLSLKRANVVADAWAMGGQIPRSNLTTQGLGKKYPIASNKTAQGRAENRRVAVVITTP | not soluble |
| FLKGGFDPKMNSKEALQILNLTENTLTKKKLKEVHRKIMLANHPDKGGSPFLATKINEAKDFLEKRGISK | not soluble |
| MSLSTLKRDHIKKNLRDTEYDVVIVGGGITGAGIALDASNRGMKVALVEMQDFAQGTSSRSTKLVHGGLRYLKQLQVGVVAETGKERAIVYENGPHVTTPEWMLLPMHKGGTFGKFSTSIGLAMYDRLAGVKKSERKKMLSKQETLNKEPLVKRDGLKGGGYYVEYRTDDARLTIEVMKKAAENGAEILNYTKSEHFTYDSNKKVNGIEVLDMIDGETYAIKAKKVINASGPWVDEVRSGDYARNNKQLRLTKGVHVVIDQSKFPLGQAVYFDTEKDGRMIFAIPREGKAYVGTTDTFYDNEKATPLTTQEDRDYLINAINYMFPTVNVKDEDIESTWAGIRPLILEKGKDPSEISRKDEVWEGESGLLTIAGGKLTGYRHMALEIVDLLAKRLKQEYGLKFESCATKNLKISGGDVGGSKNFEHFVEQKVDAAKGFGIDEDVARRLASKYGSNVDQLFNIAQTAPYHDSKLPLEIYVELVYSIQQEMVYKPTDFLVRRSGKLYFNIQDVLDYKNAVIDVMADMLNYSETQKEAYTEEVEVAIDEARTGNDQPATKALEHHHHHH | soluble |
| DKELFFINVYDITASKKAERELIESEEKFKQVVELSVDGIIIGTDSGKIVDCNGAACRIFGYDKEEILKLQVIDLFPGDLNIIAHDITSCNKAAGEKTVERINQKKDGTSFPAEVAARRVKLGN | not soluble |
| MERARVIAEAAAHISRELGAAAIMVSGDLNFEGIETGEIPVYYISMRPKSIIDHLVATSKDGKSPVKELGDQLTREASGNVEYVQHAAAIEYALEGPKNGIVVGVIETRGSSSIIVHNLDDNPLIKAMKECEERVNPEVMNAVLKIAFDIALTGREGKKIGAAFIVGDSEEVLKRSHQIILNPYEGHEEAHRNILDRRNWESIKEFALLDGVFVIDETGIVRAAGRYLDVDGKNIDIEKGLGGRHVSAAAISRDTVAISVTVSESGGVLRVYKDAKETICMESLQPASRYV | soluble |
| MGSDKIHHHHHHMPRKPIPALPPLDWLRSFEAAARLSNFTAAAAELGLTQAAVSQHIRLLEERLKTRLFSRLARGVALSPEGAAYLPHIQSAFATISSSTTELFEPRAVQTVSIRVPISFALLILVPALPDLAEALPRIQLDLVTIHRPTDYDLPGSALDIRFGNGSFPGREAGRLTAERLVPVASPALAGAADWTALPLLLVAGAREMWAEWFAAAGLAGHPQRSHRFDSFVAAMEAASAGAGVLLGSRPLVDAALRNRTLVPLSDFELSSSSGHFLTSASTARLTSAEQDFRQWLLGHLSRKAPA | not soluble |
| NKDWTLAIRGNITYNKDKWIEGELPEQRYDWMNQYGQNILGKKGYIAEGLFTQAEIDDMARWESLSQANKATTPKPFASQFGTVKAGDIKYKDLNNDGQIDAYDKTYICRGDVPTMVYGFGFTLGWKNLSLGMMFQGTHDAERIMSGSSIQPFNGGGGSGNLYSNIDDRWTEDNPNQNAFYPRLSYGAETSSNINNFQPSTWWVRDFSFLRLKTMQISYNLPKDWVNKVRLKNAAVYVMGTNLFTLSKFKLWDPELNTDNGASYPNTTSYSVGVNFTF | not soluble |
| MIRFAVIGTNWITRQFVEAAHESGKYKLTAVYSRSLEQAQHFANDFSVEHLFTSLEAMAESDAIDAVYIASPNSLHFSQTQLFLSHKINVICEKPLASNLAEVDAAIACARENQVVLFEAFKTACLPNFHLLRQALPKVGKLRKVFFNYCQYSSRYQRYLDGENPNTFNPAFSNGSIMDIGFYCLASAVALFGEPKSVQATASLLASGVDAQGVVVMDYGDFSVTLQHSKVSDSVLASEIQGEAGSLVIEKLSECQKVCFVPRGSQMQDLTQPQHINTMLYEAELFATLVDEHLVDHPGLAVSRITAKLLTEIRRQTGVIFPADSVKL | soluble |
| MKLAVITDSSVYLPQDFVQREDLFILDIDITIDGKTYIEGKNLSLDEFYTKMAASKELPKTSQPNLAELDDLLTNLEEEAYTHVIGLFLSGGISGFHQNIQYLIAEHDKLEIAFPDTKITSSPMGLMVMEALKWGREEIAFEQILVNLQVMIDKTNAFIMVDDLNHLVKGGRLSNGSALLGNLLSIKPILYFTNGRIEVFEKVRTEKKAIKRLISIIDEVTADGSYMVYIIHANARGKAEDLQKRLVDHGYTKNLAIVPFNGVIATHLGEGAIALGAIPII | not soluble |
| AVLLLGEVTNGALNRDATAKAVAAVKALGDVTVLCAGASAKAAAEEAAKIAGVAKVLVAEDALYGHRLAEPTAALIVGLAGDYSHIAAPATTDAKNVMPRVAALLDVMVLSDVSAILDADTFERPIYAGNAIQVVKSKDAKKVFTIRTASFDAAGEGGTAPVTETAAAADPGLSSWVADEVAESDRPELTSARRVVSGGRGLGSKESFAIIEELADKLGAAVGASRAAVDSGYAPNDWQVGQTGKVVAPELYVAVGISGAIQHLAGMKDSKVIVAINKDEEAPIFQIADYGLVGDLFSVVPELTGKL | soluble |
| MNDGDETLTAGAQGRQFGPLGTALVIIPTYNEAENIKSIVGRVRASVPEAHVLVADDNSPDGTGKLADELAVEDDQVHVLHRKGKEGLGAAYLAGFRWGLDNGYGVLVEMDADGSHRPEELPRLLTALKGADLVLGSRWVPGGRVVNWPKSREFISRGGSLYSRLALDLPQRDITGGYRAFRRETLEGLGLDEVASQGYCFQVDLARRTVKAGYHVVEVPITFVEREFGDSKMSRDILVEALWRVTTWGVGERVGRITGRGPKSSLEHHHHHH | not soluble |
| MAIESEVLVIGGGLGGLTSALAAAREGADVRLVSYKQSTLRQASGLVDVLGYTPDGDGPLTDPYEAIPSLPEAHPYRKVGVQTVRDALSLFDDAVPTYEGEHTDTNALLPTHGGSIKPTARYPAGASAGLASDTRDTLLVGIEEMVDFDAPHVAAHLDATGVPFDVRGETIRFPGDLRADAKVTRYAKLLDTNSEVAVRGRMVPAREALAQRVNPLLEDEERVGFPAILGDDNPGAIRDALGDHLGVDVFEVPMGPPSLPGLRLEDALFSALDEAGASIETGNPVVDFDGEDRIEKVFIEKNGAKIPNSADQYVLATGGFVGKGVESDREGVYEPVFDCHIPHAADRYDWFEGELFGDHEFARYGVATDDDLRPLDASEHSEFENLRAAGSVLGGYDFAAEKSGSGVSIATGYAAGQRAAQEARLEHHHHHH | soluble |
| MTVEEYQQTVAQWLEVAKDPHFNKAYTELTYKPMREMVTYLQDHDFKVYIVSGGGVDFMRTWAPEVYGIPEEQIIGSALKYKYDYNNSNPTVTKLGEILTIDDKAGKVENIQHIIGKKPVLAIGNSDGDHAMMQWATSQPNSMAMIVHHTDEAREWKYDR | not soluble |
| MSLNVLSVSSEIYPLIKTGGLADVVGALPIALEAHGVRTRTLIPGYPAVKAAVTDPVKCFEFTDLLGEKADLLEVQHERLDLLILDAPAYYERSGGPYLGQTGKDYPDNWKRFAALSLAAARIGAGVLPGWRPDMVHAHDWQAAMTPVYMRYAETPEIPSLLTIHNIAFQGQFGANIFSKLALPAHAFGMEGIEYYNDVSFLKGGLQTATALSTVSPSYAEEILTAEFGMGLEGVIGSRAHVLHGIVNGIDADVWNPATDHLIHDNYSAANLKNRALNKKAVAEHFRIDDDGSPLFCVISRLTWQKGIDLMAEAVDEIVSLGGRLVVLGAGDVALEGALLAAASRHHGRVGVAIGYNEPLSHLMQAGCDAIIIPSRFEPCGLTQLYALRYGCIPVVARTGGLADTVIDANHAALASKAATGVQFSPVTLDGLKQAIRRTVRYYHDPKLWTQMQKLGMKSDVSWEKSAGLYAALYSQLISKGHEGHHHHHH | soluble |
| MGDDCSDHSSLCKHCCYEMIRDSIKDYKSGPLYARCPQCFRNISSLTRRKRRLTSEGHDENCPAPMVPMVNAEHSISLCDYTTSMMGGGQVNKGFESSSSLFLCFRKFPIGNYNQKFFVGDSLKNGRIQYRNTKYEYSKKHFRSYKFFMIFQICRSKFQNL | not soluble |
| VVTRQLGRAPRGVLAIAYRCPNGEPGVVKTAPRLPDGTPFPTLYYLTHPVLTAAASRLETTGLMREMNRRLGQDAELAAAYRRAHESYLSERDALEPLGTTVSAGGMPDRVKCLHVLIAHSLAKGPGLNPFGDEALALLAAEPRTAATLVAGQWR | soluble |

— the DeepSol protein solubility set
